Laboratory results as given in the supplement of paper PMC7877785.
± gives the uncertainty stated by the source.

Experiment: self-splicing fitness, log relative to wild type (ln ratio); higher = more splicing; Tetrahymena group I intron in knt gene, E. coli kanamycin selection, DiMSum; sequences stand for … in CUCUCU…GGAGGGAAAAGUUAUCAGGCAUGCACCUGGUAGCUAGUCUUUAAACCAAUAGAUUGCAUCGGUUUAAAAGGCAAGACCGUCAAAUUGCGGGAAAGGGGUCAACAGCCGUUCAGUACCAAGUCUCAGGGGAAACUUUGAGAUGGCCUUGCAAAGGGUAUGGUAAUAAGCUGACGGACAUGGUCCUAACCACGCAGCCAAGUCCUAAGUCAACAGAUCUUCUGUUGAUAUGGAUGCAGUUCACAGACUAAAUGUCGGUCGGGGAAGAUGUAUUCUUCUCAUAAGAUAUAGUCGGACCUCUCCUUAAUGGGAGCUAGCGGAUGAAGUGAUGCAACACUGGAGCCGCUGGGAACUAAUUUGUAUGCGAAAGUAUAUUGAUUAGUUUUGGAGUACUCGUGGUCG
Summary of the method: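 Pooled colonies went to amplicon sequencing on an Illumina HiSeq 2500 after six replicate transformations. The plates were LB agar with 100 μg/mL carbenicillin, 50 μM IPTG and 0.2% rhamnose, with or without 25 μg/mL kanamycin, incubated overnight at 37°C or 30°C. The E. coli BL21(DE3) library had all eight P1ex-region intron nucleotides randomised, the intron placed in the knt kanamycin-resistance gene on pET-22b(+). DiMSum fitness is the error-weighted combination of replicate fold changes, kanamycin against none, normalised to wild type.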

Row | Sequence | self-splicing fitness (ln) (30 °C) | self-splicing fitness (ln) (37 °C)
1 | UCGAAGCAAUAUUACGCUAG | -2.16 ± 0.14 | -0.234 ± 0.14
2 | AGCCAGCAAUAUUACGUAGC | -3.01 ± 0.14 | -2.05 ± 0.15
3 | UUAAAGCAAUAUUACGGUAC | -2.58 ± 0.22 | -1.06 ± 0.22
4 | UUCAAGCAAUAUUACGUGUG | -1.25 ± 0.056 | -0.551 ± 0.07
5 | CGGAAGCAAUAUUACGCAAG | -0.584 ± 0.18 | -1.95 ± 0.43
6 | CCCGAGCAAUAUUACGGCAC | – | -2.32 ± 0.28
7 | GAUAAGCAAUAUUACGCGUA | -0.996 ± 0.14 | -0.968 ± 0.16
8 | ACGAAGCAAUAUUACGUACG | -3.8 ± 0.33 | -0.988 ± 0.15
9 | CCCGAGCAAUAUUACGGUCG | -3.56 ± 0.24 | -2.58 ± 0.2
10 | UUUCAGCAAUAUUACGCAUA | -2.13 ± 0.21 | -0.691 ± 0.17
11 | AGCCAGCAAUAUUACGGACG | 0.121 ± 0.072 | 0.405 ± 0.094
12 | GAUAAGCAAUAUUACGUCGC | -1.76 ± 0.22 | -1.17 ± 0.27
13 | GCUUAGCAAUAUUACGCCAA | -4.1 ± 0.43 | –
14 | AUAUAGCAAUAUUACGGAAG | -3.08 ± 0.36 | -1.27 ± 0.34
15 | AGUAAGCAAUAUUACGCGCC | -0.457 ± 0.22 | 0.671 ± 0.29
16 | CUAUAGCAAUAUUACGAGUU | -3.04 ± 0.16 | -0.864 ± 0.18
17 | AGACAGCAAUAUUACGGCUG | -2.93 ± 0.14 | -2.34 ± 0.19
18 | AGCUAGCAAUAUUACGACUG | -0.901 ± 0.072 | -0.941 ± 0.12
19 | UCCAAGCAAUAUUACGCAUG | -4.8 ± 0.31 | -2.27 ± 0.19
20 | AGGAAGCAAUAUUACGGGAA | -2.67 ± 0.25 | -2.08 ± 0.26
21 | UCAAAGCAAUAUUACGAUGG | -1.91 ± 0.1 | 0.127 ± 0.11
22 | CUCCAGCAAUAUUACGGAGU | -4.09 ± 0.31 | -1.28 ± 0.19
23 | AGUCAGCAAUAUUACGCUCA | -0.675 ± 0.095 | -0.791 ± 0.12
24 | UGUCAGCAAUAUUACGCUUG | -1.09 ± 0.066 | -0.432 ± 0.089
25 | UCCUAGCAAUAUUACGGUUG | -4.08 ± 0.22 | -1.81 ± 0.14

Row | Sequence | self-splicing fitness (ln) (30 °C) | self-splicing fitness (ln) (37 °C)
26 | GCUGAGCAAUAUUACGAGAG | -2.49 ± 0.23 | -2.41 ± 0.22
27 | GUAUAGCAAUAUUACGGAGA | – | -2.57 ± 0.45
28 | GCUAAGCAAUAUUACGCCAU | -2.71 ± 0.2 | -3.21 ± 0.27
29 | GCCAAGCAAUAUUACGCAGC | -2.96 ± 0.2 | -2.53 ± 0.25
30 | UGCGAGCAAUAUUACGAUUC | -2.7 ± 0.23 | –
31 | AACCAGCAAUAUUACGUUGA | -1.65 ± 0.083 | -0.421 ± 0.087
32 | UCGGAGCAAUAUUACGGUAU | -3.24 ± 0.35 | -2.16 ± 0.26
33 | UGUCAGCAAUAUUACGCAUA | -0.485 ± 0.06 | 0.0762 ± 0.068
34 | ACUUAGCAAUAUUACGGAAA | -2.19 ± 0.27 | -2.09 ± 0.26
35 | AUGAAGCAAUAUUACGGACU | 0.892 ± 0.12 | 0.27 ± 0.1
36 | UGAUAGCAAUAUUACGGUUC | – | -1.46 ± 0.27
37 | ACCGAGCAAUAUUACGGACC | -1.29 ± 0.082 | -0.293 ± 0.092
38 | CAGAAGCAAUAUUACGUAUG | -4.42 ± 0.16 | -2.56 ± 0.13
39 | CGCUAGCAAUAUUACGGUGC | -4.65 ± 0.34 | -3.09 ± 0.25
40 | CACAAGCAAUAUUACGUGAA | -4.27 ± 0.25 | -2.39 ± 0.21
41 | GCGCAGCAAUAUUACGGGAU | -1.66 ± 0.1 | -1.09 ± 0.12
42 | CUUGAGCAAUAUUACGCCAU | -2.92 ± 0.22 | -3.8 ± 0.46
43 | CCGCAGCAAUAUUACGACAU | -3.899 ± 0.024 | -2.94 ± 0.039
44 | GCAAAGCAAUAUUACGCUAA | -2.19 ± 0.14 | -1.29 ± 0.12
45 | UCCUAGCAAUAUUACGAAUA | -2.81 ± 0.26 | -1.98 ± 0.34
46 | UAGAAGCAAUAUUACGUCUA | -1.81 ± 0.16 | -0.539 ± 0.14
47 | CGCUAGCAAUAUUACGCGAA | – | -2.95 ± 0.43
48 | AAGUAGCAAUAUUACGGGCG | -1.71 ± 0.11 | -1.53 ± 0.14
49 | AGCAAGCAAUAUUACGCCUG | -3.23 ± 0.27 | -2.54 ± 0.42
50 | ACGAAGCAAUAUUACGAUGC | -3.28 ± 0.21 | -2.01 ± 0.37

Row | Sequence | self-splicing fitness (ln) (30 °C) | self-splicing fitness (ln) (37 °C)
51 | GUAUAGCAAUAUUACGUCGU | -2.22 ± 0.12 | -0.949 ± 0.13
52 | AAAAAGCAAUAUUACGUACG | -1.1 ± 0.055 | -0.101 ± 0.076
53 | GGACAGCAAUAUUACGAUGG | -2.41 ± 0.1 | -2.05 ± 0.13
54 | AUGUAGCAAUAUUACGUGCU | -1.29 ± 0.081 | -0.985 ± 0.09
55 | GUAUAGCAAUAUUACGUUUG | -4.31 ± 0.46 | -2.11 ± 0.2
56 | ACAAAGCAAUAUUACGAGCC | – | -1.97 ± 0.25
57 | UGGCAGCAAUAUUACGACAA | -0.602 ± 0.14 | -0.308 ± 0.16
58 | UUUGAGCAAUAUUACGCCAA | – | -1.56 ± 0.27
59 | CCAAAGCAAUAUUACGGCCC | -3.57 ± 0.43 | –
60 | ACGUAGCAAUAUUACGGUGU | -2.43 ± 0.11 | -1.81 ± 0.14
61 | ACACAGCAAUAUUACGUCGC | -4.02 ± 0.21 | -2.56 ± 0.17
62 | CAACAGCAAUAUUACGAGGC | -3.79 ± 0.36 | -1.77 ± 0.18
63 | UCACAGCAAUAUUACGCUAG | -2.91 ± 0.13 | -1.49 ± 0.12
64 | UCGGAGCAAUAUUACGCACU | -3.53 ± 0.25 | -2.23 ± 0.23
65 | CGCGAGCAAUAUUACGACGG | -0.512 ± 0.1 | -0.452 ± 0.11
66 | CAUCAGCAAUAUUACGUGCC | -2.97 ± 0.16 | -2.47 ± 0.24
67 | CCUAAGCAAUAUUACGAGUG | -0.812 ± 0.045 | -0.282 ± 0.073
68 | CACUAGCAAUAUUACGCAAG | -2.39 ± 0.098 | -1.43 ± 0.12
69 | CCGCAGCAAUAUUACGGGUG | -1.22 ± 0.055 | -0.741 ± 0.069
70 | CACCAGCAAUAUUACGGUCA | -0.569 ± 0.05 | 0.174 ± 0.062
71 | GCCCAGCAAUAUUACGCGCG | -2.16 ± 0.14 | -0.815 ± 0.13
72 | CUUGAGCAAUAUUACGGGAC | -3.63 ± 0.29 | -2.56 ± 0.3
73 | UGACAGCAAUAUUACGGAUC | -4.78 ± 0.32 | -2.21 ± 0.16
74 | UUUGAGCAAUAUUACGUUUU | -3.55 ± 0.19 | -2.65 ± 0.17
75 | CCGCAGCAAUAUUACGAUAU | -4.2 ± 0.23 | -2.76 ± 0.17

Row | Sequence | self-splicing fitness (ln) (30 °C) | self-splicing fitness (ln) (37 °C)
76 | UAUAAGCAAUAUUACGCGCA | -0.204 ± 0.11 | 0.304 ± 0.14
77 | GAAGAGCAAUAUUACGGAGU | -3.07 ± 0.46 | -2.47 ± 0.45
78 | CCCCAGCAAUAUUACGGCAG | -3.92 ± 0.16 | -2.22 ± 0.15
79 | AUAAAGCAAUAUUACGCAUU | -1.82 ± 0.086 | -0.523 ± 0.11
80 | UGAAAGCAAUAUUACGUUGG | -2.36 ± 0.091 | -1.66 ± 0.11
81 | GACGAGCAAUAUUACGGGAA | -3.41 ± 0.31 | -2.34 ± 0.19
82 | CCAUAGCAAUAUUACGGGCA | -3.32 ± 0.26 | -2.95 ± 0.29
83 | CCUUAGCAAUAUUACGAUCA | – | -2.51 ± 0.38
84 | GCUAAGCAAUAUUACGCCGU | -3.45 ± 0.3 | -0.927 ± 0.31
85 | CGCAAGCAAUAUUACGUCAU | -4.26 ± 0.24 | -2.4 ± 0.17
86 | ACUAAGCAAUAUUACGUAGA | -3.25 ± 0.12 | -1.28 ± 0.1
87 | UGUUAGCAAUAUUACGAGUA | -1.32 ± 0.13 | -0.347 ± 0.13
88 | AGCGAGCAAUAUUACGCUUA | -3.13 ± 0.27 | 0.422 ± 0.17
89 | GGUUAGCAAUAUUACGCUGU | -2.1 ± 0.15 | -0.41 ± 0.14
90 | GUUAAGCAAUAUUACGACCC | – | -0.221 ± 0.44
91 | GACCAGCAAUAUUACGUUUG | -2.55 ± 0.073 | -1.42 ± 0.081
92 | GUCGAGCAAUAUUACGGCAA | -3.13 ± 0.31 | -1.76 ± 0.29
93 | CCCGAGCAAUAUUACGUUGG | -4.15 ± 0.18 | -2.09 ± 0.14
94 | CAAGAGCAAUAUUACGAUUU | -3.11 ± 0.2 | -2.45 ± 0.16
95 | UGUAAGCAAUAUUACGUGAU | -3.5 ± 0.18 | -2.05 ± 0.17
96 | CCUCAGCAAUAUUACGAUUU | -4.46 ± 0.22 | -1.39 ± 0.15
97 | UGACAGCAAUAUUACGACUG | -0.341 ± 0.06 | 0.371 ± 0.091
98 | CGGUAGCAAUAUUACGUAGC | -3.25 ± 0.2 | -3.13 ± 0.27
